Assay results taken from patent US6942981.

Target: GST-DLG1 PDZ domains 1-2 fusion protein (human) (UniProt Q12959)
Assay: variant of the G assay; 100 uM unlabeled 8-mer with 20 uM biotin-labeled AA2L on immobilized GST-DLG1

percent inhibition of labeled AA2L CLASP-2 peptide binding: > 50%
Substance: CLASP-2 C-terminal 8-mer peptide MTSSSSVV (unlabeled)
